Experimental data taken from article PMC6813122, “Characterization of a highly stable α-galactosidase from thermophilic Rasamsonia emersonii heterologously expressed in a modified Pichia pastoris expression system” (Microbial Cell Factories, 2019).

Columns and labels:
[1] = molecular target: ReGal2, GH27 α-galactosidase from Rasamsonia emersonii (Rasamsonia emersonii); experiment: SEC; gel filtration of purified ReGal2, Superdex 200 Increase 10/300 GL, 10 mM Tris-HCl pH 8.0 plus 100 mM NaCl, calibrated with molecular weight standards; self-association, oligomeric state of the native enzyme
purified protein = substrate: O=[N+]([O-])c1ccc(O[C@H]2O[C@H](CO)[C@H](O)[C@H](O)[C@H]2O)cc1; experiment: purified protein; conditions: 80 °C, 20 mM HAc-NaAc buffer pH 4.8 (general assay buffer), 0.25-2.0 mM pNPGal

Molecule | stoichiometry N [1] | Km (purified protein) [µM] | kcat (purified protein) [s⁻¹] | kcat/Km (purified protein) [M⁻¹ s⁻¹]
ReGal2, GH27 α-galactosidase from Rasamsonia emersonii (enzyme) | 6 | – | – | –
ReGal2 (Rasamsonia emersonii CBS 393.64) (protein) LDNGLAITPQMGWNTWNSFGCSLNETVILDAAEKLVSLGFKDLGYEYVVLDDCWSAGRNASGYLVPDPAKFPNGIDGLAEKIHALGLKIGIYSSAGTMTCARYAGSLGYEEKDAALWASWGIDYLKYDNCYNQGQEGTPKLSYDRYNAMGQALNKTGRPILYSLCNWGVDGPWNFASTIANSWRTSGDLLNTWDRDDANCPCSELEGLDCKTPGYKCSILNVINKAVYYPSKAFPGAWNDLDMLQVGNGGLTDDEAVAHMSLWAAFKSPLLMTNVLSNIDPPTLSILQNPAVLAVSQDPVGSSVNRIWRYYVDDVDANGYGEIQLFSGGLAGGDQLVLLLNAGSKDRTMNATLEDIFWEDGPGGTASQVQQSWDVYDLWANRMSNETAAAIINAANSTGSAAPAAPINMTALGGAKHVYSQVPPSDSKALMGTKVGSVQPSGTVKAFVKAHGVAMLRLRQQSQKKDEL | – | 190 ± 40 | 623 | 3.28e+06
